The values that follow come from a protein production outcome set (Wang et al. 2014).

A short description of the data set: label from the status in PepcDB records.
On to “MKINLDRTSSGFCIGVQGTIHVAEEKLAQSGELYCLGDVVHNEVEVKRLEALGMETIDIPAFEELRNAEVLIRAHGEPPSTYETARKNNLAITDTTCPVVAKLQRTAKMLHQLGYQVVIYGKKVHPEVIGINGQCDDEGVVIKHPDLSDPEEIAPLDLSRKTALISQTTMDVPGFYELKRNLEKLFAEHGHRNPGTQSGEWMAVRDIDITAEKTGALAMPKLVFKDTICRQVSSRNGKLRDFALANDCIVFAAGRKSSNGQVLYSICKDANPHSYFIEDVDEIRPEWFVGENGKPVESVGICGATSTPMWLLEKVANYIDKTFGDGSSNPNA”, for which the protein production result was “failed”.
Turning to “MKINPRVIYLSIVFIFLVIMASNVAVADDLEAEKLTKVASNVALDSNPVWSPDGKEILFSRENGLYKVFSDGTGEMKLTSTKGKNFTSDYAWSPDGSKISYIENRYDTAAGPRSDLWIMNSNGEGKKQLLDTIWYRYYYIYTWFPTGSKILYAEIYEEIGGSYWEMDSDGSNKHNIGNMGIANGIALSPDASKIAICAHGPADVDYYIDVGKVGKDLTSFRYGLITHQTQSRQSQIWAPDGSKIVYYAGKNESYYEDENSEIYIVKADGTGRIQLTSDSANDNSPVFSPDGSKIVFVSDKAGNEDIWIMDADGKNKVQLTSDPASDSFPVWSPDGKKIAFWSNRGGNNNIYTLTLENEKTPVAAFCASQTSGNAPLKVSFTDKSTGTPTSWSWSFGDGKTSTLKNPLHIYSKAGKYTVSLTVKNAAGTNMKTITKYITVKTAPVKPIAAFSASPGSGKTPLKVKFTDTSTGTPTAWRWNFGDGSKSFLQNPIHKYSKTGIYTVDLTVKNAAGRNTVTKTDYITVVTKPVAEFSATPTTGKLPLTVEFTDKSTGVPTGWIWSFGDGTISREQNPKHQYLQEGKYKIILSVTNVAGSSTIKKINYIRVTTNTRPRIL”, the protein production result is listed as “failed”.
For the sequence “MKIRPFLVALGLTTFAGAAHGANFEDLTQLLSTKKCPLCDLRGAGLVMVNLTRADLTGADLSGANLSGADLTGANLSGANLTSASLNGANLSGANLNGAITDGTDFREAYFDRATFINTNLETAYMQGAKAVPNTAGTPQLFYGWGLLETSKGNYQSALNHYDQALALDPEFAPGYLGRGLTLLKIGNEASAKQNVEYAQLLFEENQDEVGVKTSEQFLEDLANMQEARRQGAGNPQLDAIVRGVASMAFKYLLPLVGL”, the protein production result is “failed”.
For “MKISAIKTWLPLLIIIVLLGLFLGLGLNKYVSFASLRDNHEWLIAITKSHFYLVSFVFIIIYTVAVALSIPGAIFLTLIGGFLFGILWGTFLVVLSATLGATILFFAVQSSLGEVFSKRASGWVKRMRSGFKDNAFSYLLTLRLIPLFPFWVINIVSAVLGVSASTFIIATFIGIIPGSIVYVSVGNGLGELFAASLQPNLGIIFEPKFILPLLGLAALSLIPVFYKKKGKQGTEKMKDKDLFCDLAIIGGGSAGLSIAAGCSQLGLQVVLVEPNKMGGDCLNYGCIPSKTLLNTAKIFYQTKHSTVLGIQAKSVKIDFLQVMQQVHNVIACIAKNDSVERFTSLGVQVIQEAGHFIGPKQFKLKRKIIRAKHFVIATGSSPAIPPIQNLNKVSYLTNETIFNLKVQPEHLIVIGGGPIGCELAQAFAMLGSKVTILEAFTILPKDDADCVAIIRSQLESMQIALYEQIKINKIEESADKTISVHLENQDNPITITGSHLLVSTGRVANVDGLGLEKAGVQYTTRGINTNARLQTTNKKIYAIGDVTGPYQFTHMASYQAGIALRNIAFKWPAKVDYKAVPWVTYTEPELAHVGLLASEALKDPTLKITEFAFAEVDRAQAENKVNGKIKIITGKKAKILGVSIVGAHAGELILPWVIAVKERKSLRTFTDAIAAYPTFSEISKRVAGEYYKPFIFSSKIRTFVRWLNKLG”, the protein production entry is given as “failed”.
“MKISELGYDRAFLQLFDGNDFQLYDHQRMAIEQIRKGRNVVVSVPTAAGKTLIAYSAIYETFQRNLKSIYIVPLRSLAMEKFSELSRLRDLGLKVKMSIGDYDDSPDFIKRYDAVILTSEKADSLLHHDPYILNDVGLLVLDEIHTIGDESRGPTLETVASIARYVNPDVRILALSATVSNAMELASWLDASLIKSDFRPVPLKTGILYRDQLYLDGKRRSGVSINQIIRETVEDNGQVLMFVSSRKKAEDTARDLAQIFGSDANIKISSDETNVYDDMLNEILPRGVAFHHAGLSNDQRAFIEREFRARRIKVIVATPTLAAGVNLPARLVIVRDITRWGSDGISYLTNMEIKQMIGRAGRPGYDQYGIGLIYVSSQSSYEAAKDYLSTDPEPVVSYLGNEAKVRFNTLAAISMGLARSPSDIMKFYETTLFFSQNGKDLLEEKISASLKFLEKNGFIKQSPDLRTTQLGKVTSDLYIDPESALRLVDFFDGPADVDHAIYYISLCREIVPFNIKDDYSAMEFLDDIGLIDGDIDAAKTAIVLRDWISEASYKYLYDKYGIAPGDMQARISMADWLSYSLAKLSSIYKPEVRRMLEILNLRIKEGIREDILQLVLIPGVGRVRARRLYDAGLRSIEDVASASPDRIKAIYGFSDTLANAIIRRARTIASKEVR”: the protein production entry is given as “failed”.
As for “MKITVFGATGNVGNRVITEALLRGHEITAVLRNNARANEFDSSVKVVIGHADNVDDVVKWSDGQDLIISATRPPQGLESQLVDTAKALLSGLAQTKVRLLLVGGAASLTVPNSNGMLVVDDTDLVPTAWRDIALACLAQHKLCQENESVDWSYISPPAVIVPGERTGIFRTGSDELLVDEQGQSTISLEDFAIALLDEAEVVKHKRKRFTVAYLEHHHHHH”, the protein production result is given as “failed”.
As to “MKITWFGHACFALEMEGKTIVTDPFDESVGYPIPNVTADVVTESHQHFDHNAHHLVKGNFRVIDRPGAYTVNGVKIKGVETFHDPSHGRERGKNIVFVFEGEGIKVCHLGDLGHVLTPAQVEEIGEIDVLLVPVGGTYTIGPKEAKEVADLLNAKVIIPMHYKTKYLKFNLLPVDDFLKLFDSYERVGNILELFEKPKERKVVVMEVQ”, the protein production entry is “not failed”.
“MKIVAITSCPNGIAHTYMAQEKLEQVAKEMGVDIKVETQGGVGAENVLTTQDIEEADGVIIAADKQVDLSRFVGKRLINENVREGIHNPRGLIQRIINQDAPIY”: the protein production result was “not failed”.
Take “MKKAAAYTFCFLLLSGVGIILFMDIHPAFGGIPTTEQKEAYRELDNYVDGNFVNDVPTRRAFVDPSDTTSTTNTSASEVKDRNPVSPIPVYVIDWNKINSENDSLTWFGHSAFLLNVDNKQLLIDPMLGPVVSPVSFVGRNRYEYSEDIMLHLIDEMPPIDAVLITHDHYDHLDYRSIVKLNNKVSHFFVPLGCSAHLIRWGIPEEKITELNWWEETEYQGLTVALTPSRHSSGRNPFNIDTTLWGGWVILGNKTRVYTSGDSGYGPHFKQIGDKYGPFDITLIEGAQYDRNWPDLHMVPEQAIQANLDVGGKTMMLMHWGAFTLANHAWNEPIERALKEAKIREVNIIAPMIGETVLLDSDLQTSPTSWWDF”: the protein production entry is reported as “failed”.
As for “MKKAIQFGAGNIGRGFIGGLLVKSGYHVVFADVNEYILNSINKDKKYTIHIRDVECIDEVIDNISAVSSIKEEIIDEIVQAEIITTAVGPLVLTKIASTIAKGIKARKEKGLTSNLNIIACENAIYASSSLKEEVLKYLNKEEVEYLEMYVGFPNCSVDRIVPPGKNENPLDVTVENFYEWNVEKQGFKGEIPTIVGMNLADNLMAYIERKLFTLNTGHAITAYIGYLKGYKTIEESIKDKFICDIVKSAMVESGEGLIKKYNFDSEVHYKYIDKILNRFKNPYLNDDVLRVGREPLRKLSDKDRLIKPLMTAKSYGLSVDNLILGIGAALHYNNSEDTQSVELQELIKSIGVKKAVAKIANISNDEELLNNIEKSYIFMKNL”, the protein production result was “not failed”.
Next, “MKKAKSRIAILGTGGTIAGFIDSTIATTGYAAGAIDIDVLIKAVPQIRDLADISWEQIANIDSSNMCDEIWLRLAKKIAKLFAEGIDGVVITHGTDTMEETAYFLNLTIKSDKPVVLVGAMRPSTAISADGPKNLYNAVALVVNKEAKNKGVMVAINDKILSARGVVKTHSLNVDAFSSPDFGDLGYIVDGKVFFYNNVIKAHTKNAPFDVSKLTSLPKVDILYSYSNDGSGVAAKALFEHGTKGIVVAGSGAGSIHKNQKDVLKELLKKGLKVVVSSRVVAGCVAVSDSDEKLGFISAEDLNPQKARVLLMLALTKTSDPKKIQEYFLKY”: “not failed”.
